Results reported in paper PMC7746858.

Molecular target: human complement C1q (human)
Assay: ELISA

construct HLZ (6D8 heavy and light chains, C-terminal ZE3 fusion, no epitope tag) (antibody)
fold lower C1q binding than HLZd: 10 fold
